# Source: US20150260724A1
# Target: endogenous Fc epsilon receptor I (the IgE receptor) of RBL-2H3 cells (rat) (UniProt P12371)
# Test: cell-based or functional assay
# Chain of UniProt P12371 (P12371 24-245): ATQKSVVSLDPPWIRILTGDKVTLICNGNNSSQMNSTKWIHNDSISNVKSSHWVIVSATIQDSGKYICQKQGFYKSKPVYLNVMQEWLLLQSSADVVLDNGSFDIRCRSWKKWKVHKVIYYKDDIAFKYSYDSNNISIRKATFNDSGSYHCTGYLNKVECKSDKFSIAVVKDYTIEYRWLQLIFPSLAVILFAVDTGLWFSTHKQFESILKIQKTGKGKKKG
substance,measurement,value
"mouse IgE monoclonal antibody against trinitrophenyl hapten, purified from IgELb4 hybridoma (ATCC TIB-141)","FLUORESCENCE (IgE + TNP-BSA, specific exocytosis); 1B7-HEXB clone, HEXB substrate 4MU-NGlc, 30 min",28600
same,"FLUORESCENCE (IgE + TNP-BSA, specific exocytosis); 1C4-HEXB clone, HEXB substrate 4MU-NGlc, 30 min",39200
same,"FLUORESCENCE (IgE + TNP-BSA, specific exocytosis); 1F10-HEXB clone, HEXB substrate 4MU-NGlc, 30 min",17400
same,"FLUORESCENCE (IgE + TNP-BSA, specific exocytosis); 2D1-SEAP clone, phosphatase substrate fluorescein diphosphate, 30 min",62900
same,"FLUORESCENCE (IgE + TNP-BSA, specific exocytosis); RBL2H3-HEXB (whole stable population), HEXB substrate 4MU-NGlc, 30 min",14100
same,"FLUORESCENCE (IgE + TNP-BSA, specific exocytosis); RBL2H3 cells, HEXB substrate 4MU-NGlc, 30 min",6420
same,"FLUORESCENCE (IgE + TNP-BSA, specific exocytosis); RBL2H3 cells, phosphatase substrate fluorescein diphosphate, 30 min",29900
same,"LU… (IgE + TNP-BSA, specific exocytosis); supernatant of 12.500 GZB-GLuc cells, coelenterazine",997
same,"LU… (IgE + TNP-BSA, specific exocytosis); supernatant of 25.000 GZB-GLuc cells, coelenterazine",3780
same,"LU… (IgE + TNP-BSA, specific exocytosis); supernatant of 50.000 GZB-GLuc cells, coelenterazine",4710
same,"LU… (IgE + TNP-BSA, specific exocytosis); supernatant of 100.000 GZB-GLuc cells, coelenterazine",6280
